Tests used:
[1] = target: C8 scaffold (eight tandem repeats of H. thermocellum CipA cohesin 1) (Hungateiclostridium thermocellum) (UniProt Q06851); test: SEC-MALS; 35 μM enzyme mixed with C8 scaffold in SEC buffer with 2 mM CaCl2, S200 Increase 10/300; apparent excess of PARP10-Dock (limited C8 scaffold)
[2] = target: C8 scaffold (eight tandem repeats of H. thermocellum CipA cohesin 1) (Hungateiclostridium thermocellum) (UniProt Q06851); test: SEC-MALS; 35 μM enzyme mixed with C8 scaffold in SEC buffer with 2 mM CaCl2, S200 Increase 10/300; ratio that resulted in no visible unbound PARP10-Dock (saturating conditions)
PARP16 = target: T1, PARP16 (Homo sapiens, UniProt Q8N5Y8); test: homogeneous NAD+ conversion assay, dose-response; type: biochemical
T1 construct: catalytic fragment, MBP-PARP16-Dockerin (PARP16-Dock) on C8 scaffold
T1 sequence (Q8N5Y8 94-279 limits assumed): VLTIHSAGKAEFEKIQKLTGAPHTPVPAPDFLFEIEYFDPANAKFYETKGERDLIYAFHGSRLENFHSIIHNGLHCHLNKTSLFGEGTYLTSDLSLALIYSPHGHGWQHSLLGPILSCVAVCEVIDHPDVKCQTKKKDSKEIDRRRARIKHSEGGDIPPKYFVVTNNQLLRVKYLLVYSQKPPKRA

Compound: PARP10-Dock (MBP-PARP10 catalytic fragment-Cel48S dockerin) (from UniProt A3DH67 673-739) (enzyme)
- stoichiometry N (PARP10-Dock per C8 scaffold) [1]: < 8
- stoichiometry N (PARP10-Dock per C8 scaffold) [2]: 7

Compound: CN(C)CC(=O)Nc1ccc2[nH]c(=O)c3ccccc3c2c1 [PJ34]
- IC50 (PARP16): 38 µM

— PMC9574550, “Protein engineering approach to enhance activity assays of mono-ADP-ribosyltransferases through proximity” (Protein Engineering, Design and Selection, 2022)
